# Laboratory results from the Human Domainome abundance scans (Beltran et al. 2025).
# ± gives the uncertainty stated by the source.
# B1: PDZ and LIM domain protein 2, residues 284 to 339; numbered along this chain, Q96JY6 (parent)
# chain: HTCEKCSTSIANQAVRIQEGRYRHPGCYTCADCGLNLKMRGHFWVGDELYCEKHAR
# Variants of: B1
# Assay: abundance fitness (aPCA) (normalised: wild type 0, dead -1); higher = more abundant; growth selection in yeast, the domain comes from the species named
# Conditions: Homo sapiens
row,Variant,abundance fitness
1,HTCEKCSTSIANQAVRIQEGRYRHPGCYTCADCGLNLKMRGHFWAGDELYCEKHAR [V45A],0.022 ± 0.087
2,HTCEKCSTSIANQAVRIQEGRYRHPGCYTCADCGLNLKMRGHFWKGDELYCEKHAR [V45K],0.313 ± 0.1
3,HTCEKCSTSIANQAVRIQEGRYRHPGCYTCADCGLNLKMRGHFWLGDELYCEKHAR [V45L],-0.063 ± 0.073
4,HTCEKCSTSIANQAVRIQEGRYRHPGCYTCADCGLNLKMRGHFWDGDELYCEKHAR [V45D],-0.434 ± 0.12
5,HTCEKCSTSIANQAVRIQEGRYRHPGCYTCADCGLNLKMRGHFWNGDELYCEKHAR [V45N],-0.155 ± 0.089
6,HTCEKCSTSIANQAVRIQEGRVRHPGCYTCADCGLNLKMRGHFWVGDELYCEKHAR [Y22V],-0.321 ± 0.066
7,HTCEKCSTSIANQAVRIQEGRYRHPGCYTSADCGLNLKMRGHFWVGDELYCEKHAR [C30S],-0.921 ± 0.15
8,HTCEKCSTSIANQAVRIQEGRYRHPGCYTCADCGLNLKMRGHFWVGDELNCEKHAR [Y50N],-0.239 ± 0.17
9,HTCEKCSTSIANQAVRIQEGRYHHPGCYTCADCGLNLKMRGHFWVGDELYCEKHAR [R23H],-0.302 ± 0.074
10,HTCEKCSTSIANQAVRIQEGRYMHPGCYTCADCGLNLKMRGHFWVGDELYCEKHAR [R23M],-0.317 ± 0.12
11,HTCEKCSTSIANQAVRIQEGRYNHPGCYTCADCGLNLKMRGHFWVGDELYCEKHAR [R23N],-0.173 ± 0.18
12,HTCEKCSTSIANQAVRIQEGRYLHPGCYTCADCGLNLKMRGHFWVGDELYCEKHAR [R23L],-0.212 ± 0.062
13,HTCEKCSTSIANQAVRIQEGRYRHPGCYTCADCGLNLKMKGHFWVGDELYCEKHAR [R40K],0.188 ± 0.079
14,HTCEKCSTSIANQAVRIQEGRYRHPGCYTCADCGLNLKMLGHFWVGDELYCEKHAR [R40L],0.129 ± 0.074
15,HTCEKCSTSIANQAVRIQEGRYRHPGCYTCADLGLNLKMRGHFWVGDELYCEKHAR [C33L],-0.549 ± 0.084
16,HTCEKCSTSIANQAVRIQEGRYRHPGCYTCADAGLNLKMRGHFWVGDELYCEKHAR [C33A],-0.94 ± 0.072
17,HTCEKCSTSIANQAVRIQEGRYRHPGCYTCADVGLNLKMRGHFWVGDELYCEKHAR [C33V],-0.885 ± 0.15
18,HTCEKCSTSIANQAVRIFEGRYRHPGCYTCADCGLNLKMRGHFWVGDELYCEKHAR [Q18F],-0.303 ± 0.087
19,HTCEKCSTSIANQAVRICEGRYRHPGCYTCADCGLNLKMRGHFWVGDELYCEKHAR [Q18C],-0.087 ± 0.1
20,HTCEKCSTNIANQAVRIQEGRYRHPGCYTCADCGLNLKMRGHFWVGDELYCEKHAR [S9N],-0.058 ± 0.12
21,HTCEKCSTSIANQAVRIQEGRYRHPGCYTCADCGLNLKMRGYFWVGDELYCEKHAR [H42Y],-0.393 ± 0.12
22,HTCEKCSTSIANQAVRIQTGRYRHPGCYTCADCGLNLKMRGHFWVGDELYCEKHAR [E19T],-0.068 ± 0.14
23,HTCEKCSTSIANQAVRIQGGRYRHPGCYTCADCGLNLKMRGHFWVGDELYCEKHAR [E19G],-0.375 ± 0.1
24,HTCEKCSTSIANQAVRIQDGRYRHPGCYTCADCGLNLKMRGHFWVGDELYCEKHAR [E19D],-0.374 ± 0.14

row,Variant,abundance fitness
1,HTCEKCSTSIANQAVTIQEGRYRHPGCYTCADCGLNLKMRGHFWVGDELYCEKHAR [R16T],0.137 ± 0.11
2,HTCEKCSTSIANQAVGIQEGRYRHPGCYTCADCGLNLKMRGHFWVGDELYCEKHAR [R16G],-0.015 ± 0.06
3,HTCEKCSTSIANQAVKIQEGRYRHPGCYTCADCGLNLKMRGHFWVGDELYCEKHAR [R16K],0.223 ± 0.14
4,HTCEKCSTSIANQAVRIQEGRYRHPGCYTCADCGLNLKMRGHFWVGYELYCEKHAR [D47Y],-0.224 ± 0.098
5,HTCEKCSTSIANQAVRIQEGRYRHPGCYTCADCGLNLKMRGHFWVGWELYCEKHAR [D47W],-0.1 ± 0.059
6,HTCEKCSTSIANQAVRIQEGRYRHPQCYTCADCGLNLKMRGHFWVGDELYCEKHAR [G26Q],0.232 ± 0.077
7,HTCEKCSTSIANQAVRIQEGRYRHPSCYTCADCGLNLKMRGHFWVGDELYCEKHAR [G26S],0.069 ± 0.071
8,HTCEKCSTSIANQAVRIQEGRYRHPDCYTCADCGLNLKMRGHFWVGDELYCEKHAR [G26D],0.227 ± 0.073
9,HTCEKCSTSIANQAVRIQEGRYRHPGCYTCADCGLNLKMRGHFWVGDELYCWKHAR [E52W],-0.108 ± 0.11
10,HTCEKCSTSIANQAVRIQEGRYRHPGCYTCADCGLNLKMRGHFWVGDELYCCKHAR [E52C],-0.246 ± 0.1
11,HTCEKCSTSIANQAVRIQEGRYRHPGCYTCADCGLNLKMRGHFWVGDELYCSKHAR [E52S],-0.352 ± 0.094
12,HTCEKCSTSIANQAVRIQEGRYRHPGCYTCADCGLNLKQRGHFWVGDELYCEKHAR [M39Q],0.048 ± 0.12
13,HTCEKCSTSIANQAVRIQEGRYRHPGCYTCADCGLNLKARGHFWVGDELYCEKHAR [M39A],0.226 ± 0.066
14,HTCEKCSTSIANQAVRIQEGRYRHPGCYTCADCGLNLKIRGHFWVGDELYCEKHAR [M39I],-0.347 ± 0.19
15,HTCEKCSTSIANQAVRIQEGRYRHPGCYTCADCGLNLKMRGHFWVGDELYCEKSAR [H54S],-0.522 ± 0.097
16,HTCEKCSTSIANQAVRIQEGRYRHPGCYTCADCGLNLKMRGHFWVGDELYCEKAAR [H54A],-0.865 ± 0.29
17,HTCEKCSTSIANQAVRIQEGRYRHPGCYTCADCFLNLKMRGHFWVGDELYCEKHAR [G34F],-0.196 ± 0.13
18,HTCEKCSTSIANQAVRIQEGRYRHPGCYYCADCGLNLKMRGHFWVGDELYCEKHAR [T29Y],-0.17 ± 0.065
19,HTCEKCSTSIANQAVRIQEGRYRHPGCYTCADCGLNLKMRGHFWVGDSLYCEKHAR [E48S],-0.074 ± 0.11
20,HTCEKCSTSIANQAVRIQEGRYRHPGCYTCADCGLNLKMRGHFWVGDCLYCEKHAR [E48C],-0.289 ± 0.23
21,HTCEKCSTSIANQNVRIQEGRYRHPGCYTCADCGLNLKMRGHFWVGDELYCEKHAR [A14N],-0.023 ± 0.12
22,HTCEKCSTSIANQGVRIQEGRYRHPGCYTCADCGLNLKMRGHFWVGDELYCEKHAR [A14G],-0.254 ± 0.089
23,HTCEKCSTSIANQKVRIQEGRYRHPGCYTCADCGLNLKMRGHFWVGDELYCEKHAR [A14K],-0.417 ± 0.093
